Article PMC2528291 (Journal of molecular biology, 2001)
Where two headings read alike, the source gives them in different places.

Legend:
Experiment in all cases: SEC
[1] = molecular target: flagellin (FliC) of S. typhimurium SJW1103 (S. typhimurium (endogenous in SJW1103)) (UniProt P06179)
SEC [2] = molecular target: the molecule itself
SEC [3] = molecular target: the molecule itself; remark: listed apart in the source

Chain of flagellin (FliC) of S. typhimurium SJW1103 (S. typhimurium (endogenous in SJW1103)) (P06179 whole entry): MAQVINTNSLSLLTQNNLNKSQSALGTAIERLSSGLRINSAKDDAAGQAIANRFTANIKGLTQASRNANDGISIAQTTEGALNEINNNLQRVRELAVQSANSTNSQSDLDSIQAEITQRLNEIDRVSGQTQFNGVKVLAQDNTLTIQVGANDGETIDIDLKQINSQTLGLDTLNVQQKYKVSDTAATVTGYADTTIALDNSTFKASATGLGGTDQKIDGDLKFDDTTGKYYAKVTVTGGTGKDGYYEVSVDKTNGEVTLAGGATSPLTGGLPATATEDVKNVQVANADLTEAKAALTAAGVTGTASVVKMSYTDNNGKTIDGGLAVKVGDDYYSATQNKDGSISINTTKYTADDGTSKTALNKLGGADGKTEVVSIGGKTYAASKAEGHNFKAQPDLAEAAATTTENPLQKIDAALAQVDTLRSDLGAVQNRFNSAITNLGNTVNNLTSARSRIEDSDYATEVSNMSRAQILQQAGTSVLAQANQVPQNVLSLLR

His6-FliS (from pET-FliS) (from UniProt P26609 1-135) (natural protein)
stoichiometry N (FliS per FliC) [1]: 2

B1: FliS (native, cytosolic, of S. typhimurium SJW1103) (natural protein, S. typhimurium (endogenous in SJW1103), UniProt P26609 1-135, looked up)
chain: MYTASGIKAYAQVSVESAVMSASPHQLIEMLFDGANSALVRARLFLEQGDVVAKGEALSKAINIIDNGLKAGLDQEKGGEIATNLSELYDYMIRRLLQANLRNDAQAIEEVEGLLSNIAEAWKQISPKASFQESR
stoichiometry N (SEC [2]): 2

B2: His6-FliS (from pET-FliS) (natural protein, S. typhimurium, UniProt P26609 1-135, looked up)
chain: MYTASGIKAYAQVSVESAVMSASPHQLIEMLFDGANSALVRARLFLEQGDVVAKGEALSKAINIIDNGLKAGLDQEKGGEIATNLSELYDYMIRRLLQANLRNDAQAIEEVEGLLSNIAEAWKQISPKASFQESR
modifications: [35S]methionine label (in the affinity blots only)
stoichiometry N (SEC [3]): 2
